{
  "source": "patent US20150274802A1",
  "about": "(INDIANA UNIVERSITY RESEARCH AND TECHNOLOGY, published 2015)",
  "key": {"[1]": {"biological_target": "T1, human insulin receptor (human, UniProt P06213 28-1382)", "T1 construct": "whole, on cells; receptor-transfected HEK293 cells in the phosphorylation assay", "test": "competition SPA, [125I]insulin"}, "[2]": {"biological_target": "T2, human IGF-1 receptor (human, UniProt P08069 31-1367)", "test": "cell-based or functional assay"}, "[3]": {"biological_target": "T1, human insulin receptor", "test": "cell-based or functional assay"}, "[4]": {"biological_target": "T2, human IGF-1 receptor", "test": "cell-based or functional assay", "remark": "listed apart in the source"}},
  "note": "Ends that are not written are not given here.",
  "data": [
    {"binder": "IGF1 (Y^B16L^B17) (ligand, also called IGF analog IGF1 (Y^B16L^B17)) chain 1: GIVDECCFRSCDLRRLEMYCA chain 2: GPETLCGAELVDALYLVCGDRGFYFNKPT", "values": [
      {"measurement": "IC50", "setting": "[1]", "result": 0.51, "unit": "nM"}
    ]},
    {"binder": "#57: Gly^B2-PEG20K-Gly^B2 #11 dimer (ligand, not fully specified (N-terminus); ends and bridges not checked; also: dimer: N-terminal amines of two chains joined by bifunctional 20K PEG linker) GPEHLCGAHLVDALYLVCGDRGFYGYGSSSRRAPQTGIVDECCHRSCDLRRLENYCN", "values": [
      {"measurement": "% Insulin Activity (in vitro, assay not named)", "setting": "[2]", "result": 2.6, "unit": "%"},
      {"measurement": "potency in vitro against monomer #39", "setting": "[3]", "result": "~5", "unit": "fold"},
      {"measurement": "Phosphorylation (EC50), % IGF-1 R", "setting": "[4]", "result": 2.6, "unit": "%"}
    ]}
  ]
}
